Patent publication US20200017552A1
Where two headings read alike, the source gives them in different places.

Key:
[1] = target: HA of Ft. Monmouth influenza virus (on virions) (influenza virus strain Ft. Monmouth); assay: cell-based or functional assay
[2] = target: HA of Ft. Monmouth influenza virus (on virions) (influenza virus strain Ft. Monmouth); assay: cell-based or functional assay; remark: listed apart in the source

Binder | EC50 values for inhibition of viral replication in vitro [1] [ng/mL] | EC50 values for inhibition of viral replication in vitro [2] [ng/mL]
CIEQSFTTLFACQTAAEIWRAFGYTVKIMVDNGNCRLHVC (designed binder, modifications not checked) [HB1.6928.2.3] | 0.02 | –
TIEQSFTTLFAAQTAAEIWRAFGYTVKIMQDNGNWRLHVT (designed binder) [CS15990 A13_r31_TAWQT Thr-40-Thr] | – | 2
